From US20240076389A1 (NATIONAL RESEARCH COUNCIL OF CANADA, published 2024)
Residue numbers refer to the chain shown, from its start.

T1: AXL fragment # 8 (AXL amino acids 219-450, FN III-1+FN III-2+)
T1 construct: not shown: Yeast display carrier and tags (Aga2p, HA, MYC and any linkers)
T1 chain: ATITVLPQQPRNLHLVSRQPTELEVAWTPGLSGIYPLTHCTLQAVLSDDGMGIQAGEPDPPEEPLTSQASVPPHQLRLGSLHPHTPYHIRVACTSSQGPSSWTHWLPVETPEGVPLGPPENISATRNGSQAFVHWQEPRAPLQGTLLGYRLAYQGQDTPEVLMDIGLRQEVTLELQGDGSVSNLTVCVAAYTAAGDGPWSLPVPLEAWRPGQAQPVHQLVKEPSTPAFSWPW

T2: AXL fragment # 5 (AXL amino acids 321-450, FN III-2+)
T2 chain: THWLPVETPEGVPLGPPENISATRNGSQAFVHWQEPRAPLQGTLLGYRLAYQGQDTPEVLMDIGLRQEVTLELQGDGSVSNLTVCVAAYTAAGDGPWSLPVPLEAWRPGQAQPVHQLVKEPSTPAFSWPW

T3: AXL fragment # 2 (AXL amino acids 321-429, FN III-2)
T3 chain: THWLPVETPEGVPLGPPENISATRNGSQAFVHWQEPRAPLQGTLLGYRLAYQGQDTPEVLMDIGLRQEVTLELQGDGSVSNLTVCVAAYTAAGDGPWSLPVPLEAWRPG

T4: AXL fragment # 1 (AXL amino acids 135-226, IgL2)
T4 chain: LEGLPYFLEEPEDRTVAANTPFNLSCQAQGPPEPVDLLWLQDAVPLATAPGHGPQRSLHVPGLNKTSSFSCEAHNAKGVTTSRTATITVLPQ

T5: AXL fragment # 4 (AXL amino acids 219-335, FN III-1)
T5 chain: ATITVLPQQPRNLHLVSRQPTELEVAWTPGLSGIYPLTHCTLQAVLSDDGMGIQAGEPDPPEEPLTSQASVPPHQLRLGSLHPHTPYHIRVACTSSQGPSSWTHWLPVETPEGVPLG

T6: AXL fragment # 7 (AXL amino acids 135-335, IgL2+FN III-1)
T6 chain: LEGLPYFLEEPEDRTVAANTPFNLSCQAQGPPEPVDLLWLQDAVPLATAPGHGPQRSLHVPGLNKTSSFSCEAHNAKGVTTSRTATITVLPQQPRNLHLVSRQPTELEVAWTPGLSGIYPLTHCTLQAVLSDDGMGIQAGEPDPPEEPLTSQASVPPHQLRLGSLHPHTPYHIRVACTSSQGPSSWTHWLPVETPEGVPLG

T7: AXL fragment # 6 (AXL amino acids 26-226, IgL1+IgL2)
T7 chain: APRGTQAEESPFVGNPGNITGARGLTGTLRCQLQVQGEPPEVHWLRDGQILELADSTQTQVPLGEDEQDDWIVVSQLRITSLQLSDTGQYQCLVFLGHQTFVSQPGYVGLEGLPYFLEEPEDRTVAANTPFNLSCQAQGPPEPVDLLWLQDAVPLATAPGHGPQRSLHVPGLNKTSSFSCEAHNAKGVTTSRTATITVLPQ

T8: AXL fragment # 3 (AXL amino acids 26-138, IgL1)
T8 chain: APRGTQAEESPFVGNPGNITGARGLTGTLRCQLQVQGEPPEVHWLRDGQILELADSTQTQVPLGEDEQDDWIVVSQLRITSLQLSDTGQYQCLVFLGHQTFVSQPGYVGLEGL

B1: F111-5E9 (antibody, V domains shown)
VH: QIQLVQSGPELKKPGETVKISCKASGYTFTKYGMNWVKQAPGKGLKWMGWINTYTGEPTYADDFKGRFAFSLETSASTAYLQINNLTTEDMVTYFCAKGGYYSNPIYPMDYWGQGTSVTVSS
VL: DIQMTQTTSSLSASLGDRVTISCRASQDINNYLNWYQQKPDGTVKLLIYYISRLHSGVPSRFSGSGSGTDYSLTISNLELEDVATYFCQQGNTLPFTFGSGTKLEIK
notes: also called F111-5E9-2; mAb 5E9
B2: F107-8D12 (antibody, V domains shown)
VH: QVQLQQPGAELVKPGASVQLSCKASGYTFISFWINWVKQRPGQGLEWMGNIFPGSSSTNYNEKFKSKATLTVDKSSSTAYMQLSSLTSEDSAVYFCARDYYGGSPDYWGQGTTLTVSS
VL: DIVMSQSPSSLAVSAGERVTMSCKSSQSLLNTRTRKNYLAWYQQKPGQSPKLLIYWASTRESGVPDRFTGSGSGTDFTLTISSVQAEDLAVYYCKQSYNLWTFGGGTKLEIK
notes: also called F107-8D12-2; mAb 8D12
B3: F107-7H5 (antibody, V domains shown)
VH: QVQLQQPGAELVKPGASVKLSCKASGYTFTSYWINWVKQRPGQGLEWIGNIYPDSSSTNYNEKFKSKATLTVDKSSTTAYIQFSSLTSEDSAVYYCTRDTYGGSPDYWGQGTTLTVSS
VL: B2 VL with R18K, T32S, N37I, E61Q
notes: also called F107-7H5-2; mAb 7H5
B4: F107-10G1 (antibody, V domains shown)
VH: EVNLVESGGGVVKPGASLKLSCEASGFTFSNYGMSWVRQTSDKRLEWVASISGGGGRTYYLDNVKGRFIISRENAKNTLYLQMSSLKSEDTALFYCARGARASYFAMDYWGQGSSVTVSS
VL: VIVMTQSHKFMSTSVGDRVSITCKASQDVTTAVAWYQQKPGQSPKLLIYWASTRHTGVPDRFTGSGSGTDYSLTISNVQTEDLAFYYCQQHFTTPLTFGAGTKLELK
notes: also called F107-10G1-3
B5: F111-3C8 (antibody, V domains shown)
VH: QVQLQQPGAELGKPGTSVKLSCKASGYTFTSYWMHWVKRVPGQGLEWIGNINPNSTSADYNEKFKRKATLTVDKSSSTAYMQLSTLTSEDSAVYYCTRPLMGPYWYFDVWGTGTTVTVSS
VL: QIVLTQSPAIMSASPGEKVTISCSASSSVSYMYWYQQKPGSSPKPWIYRTSNLASGVPARFSGSGSGTSYSLTISSMEAEDAATYYCQQYHNYPPTFGGGTKLEIK
notes: also called F111-3C8-2

Molecular target: T1, AXL fragment # 8 (AXL amino acids …)
Assay: yeast surface display of hAXL fragments, whole yeast cell ELISA, signal normalised to anti-MYC
Excerpt: (§1) Epitope mapping. […] The YSD vector (pPNL6) was from The Pacific Northwest National Laboratory, USA.

binding result	Binder
no binding	B1
no binding	B2
no binding	B3
no binding	B4
no binding	B5

Molecular target: T2, AXL fragment # 5 (AXL amino acids …)
Assay: as above
Excerpt: as §1

binding result	Binder
no binding	B1
no binding	B2
no binding	B3
no binding	B4
no binding	B5

Molecular target: T3, AXL fragment # 2 (AXL amino acids …)
Assay: as above
Excerpt: as §1

binding result	Binder
no binding	B1
no binding	B2
no binding	B3
no binding	B4
no binding	B5

Molecular target: T4, AXL fragment # 1 (AXL amino acids …)
Assay: as above
Excerpt: as §1

binding result	Binder
no binding	B2
no binding	B3
no binding	B4

Molecular target: T5, AXL fragment # 4 (AXL amino acids …)
Assay: as above
Excerpt: as §1

binding result	Binder
no binding	B1
no binding	B2
no binding	B3
no binding	B4
no binding	B5

Molecular target: T6, AXL fragment # 7 (AXL amino acids …)
Assay: as above
Excerpt: as §1

binding result	Binder
no binding	B2
no binding	B3
no binding	B4

Molecular target: T7, AXL fragment # 6 (AXL amino acids …)
Assay: yeast surface display of hAXL fragments (Aga2-HA-(hAXL)-MYC), whole yeast cell ELISA, signal normalised to anti-MYC
Excerpt: as §1

binding result	Binder
binds	B1
binds	B2
binds	B3
binds	B4
binds	B5

molecular target: T9, AXL fragment # 9 (AXL amino acids 26-429, IgL1+IgL2+FN III-1+FN III-2); assay: as above
T9 construct: not shown: Yeast display carrier and tags (Aga2p, HA, MYC and any linkers)
Excerpt: as §1

binding result	Binder
binds	B1
binds	B2
binds	B3
binds	B4
binds	B5

Molecular target: T8, AXL fragment # 3 (AXL amino acids …)
Assay: as above
Excerpt: as §1

binding result	Binder
binds	B2
binds	B3
binds	B4

molecular target: T10, BSA (UniProt P02769 25-607); assay: ELISA on coated antigen
T10 construct: also called BSA (negative control)
Description: To evaluate the cross-reactivity of the mAb to other members of the TAM receptor tyrosine kinase subfamily, binding of the mAb to rhAXL-ECD, rhMER-ECD, rhTyro-3 and BSA (negative control) was measured by ELISA. 96-w half-area plates (Costar) were coated with 25 μl of rhAXL-ECD, rhMER-ECD, rhTyro-3 or BSA at 5 μg/ml in PBS and incubated overnight at 4° C. Microplates were washed 3 times with PBS, blocked with PBS-BSA 1%, and 25 μl of a 10 μg/ml diluted in PBS-BSA 1% were added and incubated at 37° C., 5% CO₂ for 2 hours. Plates were washed 4 times with PBS-TWEEN™ 20 0.05% and incubated for one hour at 37° C., 5% CO₂ with 25 μl of secondary antibody alkaline phosphatase conjugated F(ab)′2 goat anti-mouse IgG (H+L) (Jackson Immunoresearch) diluted 1/5000 in blocking buffer. After 4 washes with PBS-Tween 20 0.05%, 25 μl of a 1 mg/ml pN PP substrate solution was added and further incubated for one hour at 37° C. OD405 nm measurements were done using a microplate reader (Spectramax 340 PC, Molecular Devices).

T10 sequence (P02769 25-607 limits assumed): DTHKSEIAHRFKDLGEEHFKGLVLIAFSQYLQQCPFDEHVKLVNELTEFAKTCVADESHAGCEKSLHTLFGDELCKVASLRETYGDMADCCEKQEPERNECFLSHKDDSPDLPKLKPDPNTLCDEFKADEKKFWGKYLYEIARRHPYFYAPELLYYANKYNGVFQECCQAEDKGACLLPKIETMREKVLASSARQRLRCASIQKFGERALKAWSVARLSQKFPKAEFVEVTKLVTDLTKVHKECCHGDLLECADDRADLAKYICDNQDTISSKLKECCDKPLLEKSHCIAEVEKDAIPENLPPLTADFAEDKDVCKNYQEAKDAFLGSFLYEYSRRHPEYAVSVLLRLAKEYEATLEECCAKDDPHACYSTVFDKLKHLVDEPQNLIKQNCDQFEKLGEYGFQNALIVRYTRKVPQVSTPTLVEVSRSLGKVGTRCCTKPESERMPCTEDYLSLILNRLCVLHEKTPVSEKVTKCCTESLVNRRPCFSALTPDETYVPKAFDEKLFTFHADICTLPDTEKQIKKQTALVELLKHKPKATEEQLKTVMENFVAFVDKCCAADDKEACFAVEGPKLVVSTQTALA

binding result	Binder
no binding (tested: 10 µg/ml)	B1
no binding (tested: 10 µg/ml)	B2
no binding (tested: 10 µg/ml)	B3
no binding (tested: 10 µg/ml)	B4
no binding (tested: 10 µg/ml)	B5
